The values that follow come from paper PMC5973842.

Data set [1] addresses FITC-labeled eVP35 NPBP (Ebola virus). Nature of the data set: fluorescence polarisation. A general note: Fluorescence polarisation rises when a labelled molecule tumbles more slowly, as on binding a larger partner.
In data set [2] the test system is eNP WT (Ebola virus). Nature of the data set: fluorescence polarization.
Data set [3] concerns eNP-3 (Ebola virus). Nature of the data set: fluorescence polarization.
Data set [4] deals with eNP-2 (Ebola virus). Nature of the data set: fluorescence polarization.

Turning to “eNP-2 (Ebola virus nucleoprotein N-terminal construct lacking the first 24 residues) (domain or fragment)”, the dissociation constant (Kd) (usually the constant that tells how readily two partners part at equilibrium) in data set [1] is 1.9 nM.

Turning to 20 nt ssRNA, the Kd in data set [2] is 13 nM; in data set [3], 15 nM; in data set [4], 68 nM. In data set [1], “eNP-3 (Ebola virus nucleoprotein N-terminal construct that includes the first 24 residues) (domain or fragment)” had a Kd of 12.8 nM. “Ebola virus nucleoprotein, full-length wildtype construct (from UniProt P18272 1-739) (natural protein)”: the Kd in data set [1] stood at 10.6 nM.
